B1: Zcytor16sR/Fc4: soluble human Zcytor16 polypeptide (residue 22 to 231 of SEQ ID NO:2) fused to a C-terminal Fc4 tag (protein)
chain: TQSTHESLKPQRVQFQSRNFHNILQWQPGRALTGNSSVYFVQYKIYGQRQWKNKEDCWGTQELSCDLTSETSDIQEPYYGRVRAASAGSYSEWSMTPRFTPWWETKIDPPVMNITQVNGSLLVILHAPNLPYRYQKEKNVSIEDYYELLYRVFIINNSLEKEQKVYEGAHRAVEIEALTPHSSYCVVAEIYQPMLDRRSQRSEERCVEIPEPRSSDKTHTCPPCPAPEAEGAPSVFLFPPKPKDTLMISRTPEVTCVVVDVSHEDPEVKFNWYVDGVEVHNAKTKPREEQYNSTYRVVSVLTVLHQDWLNGKEYKCKVSNKALPSSIEKTISKAKGQPREPQVYTLPPSRDELTKNQVSLTCLVKGFYPSDIAVEWESNGQPENNYKTTPPVLDSDGSFFLYSKLTVDKSRWQQGNVFSCSVMHEALHNHYTQKSLSLSPGK

Columns and labels:
[1] = K-562 cytotoxicity assay (MTT); format: cell-based, human; conditions: human, K-562 cells, 100 uM
Protocol: The K-562 cell line (CRL-243, ATCC) has attained widespread use as a highly sensitive in vitro target for cytotoxicity assays. K-562 blasts are multipotential, hematopoietic malignant cells that spontaneously differentiate into recognizable progenitors of the erythrocytic, granulocytic and monocytic series (Lozzio, B B et al., Proc. Soc. Exp. Biol. Med. 166: 546-550, 1981).
K562 cells were plated at 5,000 cells/well in 96-well tissue culture clusters (Costar) in DMEM phenol-free growth medium (Life Technologies) supplemented with pyruvate and 10% serum (HyClone). Next day, human recombinant IL-TIF (Example 19), BSA control or retinoic acid (known to be cytotoxic to K562 cells) were added. Seventy-two hours later, the vital stain MTT (Sigma, St Louis, Mo.), a widely used indicator of mitochondrial activity and cell growth, was added to the cells at a final concentration of 0.5 mg/ml. […] is converted to a purple formazan derivative by mitochondrial dehydrogenases. Four hours later, converted MMP was solubilized by adding an equal volume of acidic, isopropanol (0.04N HCl in absolute isopropanol) to the wells. Absorbance was measured at 570 nm, with background subtraction at 650 nm. In this experimental setting, absorbance reflects cell viability. Results shown in Table 12 are expressed as % cytotoxicity.

[2] = molecular target: T1, IL-TIF (Homo sapiens, UniProt Q9GZX6); assay: Inhibition of IL-TIF reporter activation in MES 13 cells by Zcytor16-Fc4; format: cell-based; conditions: for LU w/10 μg/ml zcytoR16: zcytoR16 10 μg/ml
T1 sequence (Q9GZX6 34-179): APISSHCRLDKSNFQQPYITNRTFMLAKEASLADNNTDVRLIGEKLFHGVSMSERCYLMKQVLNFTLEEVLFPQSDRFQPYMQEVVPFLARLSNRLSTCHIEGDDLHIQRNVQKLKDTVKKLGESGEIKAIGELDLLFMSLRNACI
Protocol: MES 13 cells (ATCC No. CRL-1927) were plated at 10,000 cells/well in 96-well tissue culture clusters (Costar) in DMEM growth medium (Life Technologies) supplemented with pyruvate and 10% serum (HyClone). Next day, the medium was switched to serum free DMEM medium by substituting 0.1% BSA (Fraction V; Sigma) for serum. This medium also contained the adenoviral construct KZ136 (below) that encodes a luciferase reporter mini-gene driven by SRE and STAT elements, at a 1000:1 multiplicity of infection (m.o.i.), i.e. 1000 adenoviral particles per cell. After allowing 24 h for the incorporation of the adenoviral construct in the cells, the media were changed and replaced with serum-free media. Human recombinant IL-TIF with or without a recombinant Zcytor16-Fc4 fusion was added at the indicated final concentration in the well (as described in Table 11, below). Dilutions of both the IL-TIF and Zcytor16-Fc4 were performed in serum-free medium. 0.1% BSA was added for a basal assay control. 4 h later, cells were lysed and luciferase activity, denoting activation of the reporter gene, was determined in the lysate using an Luciferase Assay System assay kit (Promega) and a Labsystems Luminoskan luminometer (Labsystems, Helsinki, Finland). Activity was expressed as luciferase units (LU) in the lysate.
The construction of the adenoviral KZ136 vector was as follows. The original KZ136 vector is disclosed in Poulsen, L K et al. J. Biol. Chem. 273:6228-6232, 1998. The CMV promoter/enhancer and SV40 pA sequences were removed from pACCMV.pLpA (T. C. Becker et al., […] 43:161-189, 1994.) and replaced with a linker containing Asp718/KpnI and HindIII sites (oligos ZC13252 (SEQ ID NO:26) and ZC13453 (SEQ ID NO:27)). The STAT/SRE driven luciferase reporter cassette was exised from vector KZ136 (Poulsen, L K et al., supra.).) as a Asp718/KpnI-HindIII fragment and inserted into the adapted pAC vector. Recombinant KZ136 Adenovirus was produced by transfection with JM17 Adenovirus into 293 cells as described in T. C. Becker et al. supra.). Plaque purified virus was amplified and used to infect cultured cells at 5-50 pfu/cell 12-48 hours before assay. Luciferase reporter assays were performed as described in 96 well microplates as per Poulsen, L K et al., supra.).

[3] = molecular target: T1, IL-TIF; assay: IL-TIF antagonist activity in BaF3/CRF2-4/zcytor11 Alamar Blue proliferation assay; format: cell-based; design: the coding region. for human IL-TIF, without its stop codon; made in house; host or cells: BHK 570 cells; conditions: Zcytor16 at 10 μg/ml; IL-TIF at all concentrations (0.06-50 ng/ml)
Excerpt: Purified human IL-TIF-CEE (Example 19) was used to test for the presence of proliferation activity as described below. Purified humsn Zcytor16-Fc4 (Example 11) was used to antagonize the proliferative response of the IL-TIF in this assay as described below.
BaF3/CRF2-4/zcytor11 cells were spun down and washed in the complete media, described in Example 7A above, but without mIL-3 (hereinafter referred to as “mIL-3 free media”). The cells were spun and washed 3 times to ensure the removal of the mIL-3. Cells were then counted in a hemacytometer. Cells were plated in a 96-well format at 5000 cells per well in a volume of 100 μl per well using the mIL-3 free media.
Proliferation of the BaF3/CRF2-4/zcytor11 cells was assessed using IL-TIF-CEE protein diluted with mIL-3 free media to 50, 10, 2, 1, 0.5, 0.25, 0.13, 0.06 ng/ml concentrations. 100 μl of the diluted protein was added to the BaF3/CRF2-4/zcytor11 cells. […] Alamar Blue gives a fluourometric readout based on number of live cells, and is thus a direct measurement of cell proliferation in comparison to a negative control. […] Plates were read on the Fmax™ plate reader (Molecular Devices Sunnyvale, Calif.) using the SoftMax™ Pro program, at wavelengths 544 (Excitation) and 590 (Emmission). […] The response, as measured, was approximately 15-fold over background at the high end of 50 ng/ml down to a 2-fold induction at the low end of 0.06 ng/ml. […]

[4] = molecular target: T1, IL-TIF; assay: COS cell secretion trap binding of Zcytor16sR/Fc4 to Class II cytokines; design: expressed in transfected cells; host or cells: COS cells; conditions: 1-3 μg/ml Zcytor16sR-Fc4; COS cells transfected with IL-TIF cDNA
Protocol: COS cell transfections were performed as follows: A mixture of 0.5 μg DNA and 5 μl lipofectamine (Gibco BRL) in 92 ul serum free DMEM media (55 mg sodium pyruvate, 146 mg L-glutamine, 5 mg transferrin, 2.5 mg insulin, 1 μg selenium and 5 mg fetuin in 500 ml DMEM) was incubated at room temperature for 30 minutes and then 400 μl serum free DMEM media added. A 500 μl mixture was added onto COS cells plated on 12-well tissue culture plate at 1.5×10^5 COS cells/well and previously incubated for 5 hours at 37° C. An additional 500 μl 20% FBS DMEM media (100 ml FBS, 55 mg sodium pyruvate and 146 mg L-glutamine in 500 ml DMEM) was added and the plates were incubated overnight.
The secretion trap was performed as follows: Media was rinsed off cells with PBS and fixed for 15 minutes with 1.8% Formaldehyde in PBS. Cells were then washed with TNT (0.1M Tris-HCl, 0.15M NaCl, and 0.05% Tween-20 in H2O). Cells were permeated with 0.1% Triton-X in PBS for 15 minutes and washed again with TNT. […]

Molecule	cytotoxicity at 72 h, 100 µM [1] [%]	LU w/10 μg/ml zcytoR16 ([2]; IL-TIF 0 ng/ml (basal BSA control)) [LU]	LU w/10 μg/ml zcytoR16 ([2]; IL-TIF 0.03 ng/ml) [LU]	LU w/10 μg/ml zcytoR16 ([2]; IL-TIF 0.3 ng/ml) [LU]	LU w/10 μg/ml zcytoR16 ([2]; IL-TIF 3 ng/ml) [LU]	LU w/10 μg/ml zcytoR16 ([2]; IL-TIF 30 ng/ml) [LU]	LU w/10 μg/ml zcytoR16 ([2]; IL-TIF 300 ng/ml) [LU]	antagonism of the response to IL-TIF ([2]; even at the highest dose of IL-TIF used)	response to IL-TIF in presence of Zcytor16 [3]	binding of Zcytor16sR/Fc4 to cytokine-transfected COS cells [4]
CC1=C(/C=C/C(C)=C/C=C/C(C)=C/C(=O)O)C(C)(C)CCC1 [Retinoic acid, reference compound]	62	–	–	–	–	–	–	–	–	–
B1	–	104 ± 2	104 ± 4	99 ± 6	98 ± 15	110 ± 3	112 ± 30	effectively blocks the response to IL-TIF	brought down to background	positive binding

Source: US7351555B2, “Mouse cytokine receptor Zcytor16” (ZymoGenetics, Inc., priority 2001, dated 2008)
